{
  "source": "patent US20220010003A1",
  "about": "(Boehringer Ingelheim, published 2022)",
  "key": {"[1]": {"molecular_target": "T1, recombinant human periostin (human, UniProt Q15063 22-836)", "T1 sequence": "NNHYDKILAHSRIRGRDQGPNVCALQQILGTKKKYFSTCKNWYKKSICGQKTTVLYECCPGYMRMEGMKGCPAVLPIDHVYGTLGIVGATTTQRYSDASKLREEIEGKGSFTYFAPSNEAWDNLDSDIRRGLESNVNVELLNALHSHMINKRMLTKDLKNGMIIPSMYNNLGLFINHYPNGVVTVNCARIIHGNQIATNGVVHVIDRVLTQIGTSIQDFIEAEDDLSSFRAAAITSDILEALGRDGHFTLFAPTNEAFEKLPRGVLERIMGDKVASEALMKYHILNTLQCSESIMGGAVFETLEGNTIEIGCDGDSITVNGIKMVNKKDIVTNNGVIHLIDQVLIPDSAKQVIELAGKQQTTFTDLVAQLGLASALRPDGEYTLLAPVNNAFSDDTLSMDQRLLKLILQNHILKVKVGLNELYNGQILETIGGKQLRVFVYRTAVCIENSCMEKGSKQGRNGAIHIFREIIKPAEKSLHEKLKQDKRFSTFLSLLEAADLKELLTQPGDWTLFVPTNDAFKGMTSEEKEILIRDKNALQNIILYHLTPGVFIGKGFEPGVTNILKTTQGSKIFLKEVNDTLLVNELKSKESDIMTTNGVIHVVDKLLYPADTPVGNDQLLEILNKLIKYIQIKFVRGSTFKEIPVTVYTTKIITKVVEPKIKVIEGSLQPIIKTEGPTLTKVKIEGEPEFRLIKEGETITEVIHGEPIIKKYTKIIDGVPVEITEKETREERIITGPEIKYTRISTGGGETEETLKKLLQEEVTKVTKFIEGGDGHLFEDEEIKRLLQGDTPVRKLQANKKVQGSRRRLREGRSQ", "assay": "cell-based or functional assay"}, "[2]": {"molecular_target": "T2, recombinant mouse periostin (mouse, UniProt Q62009-2 24-811, limits assumed)", "T2 sequence (looked up)": "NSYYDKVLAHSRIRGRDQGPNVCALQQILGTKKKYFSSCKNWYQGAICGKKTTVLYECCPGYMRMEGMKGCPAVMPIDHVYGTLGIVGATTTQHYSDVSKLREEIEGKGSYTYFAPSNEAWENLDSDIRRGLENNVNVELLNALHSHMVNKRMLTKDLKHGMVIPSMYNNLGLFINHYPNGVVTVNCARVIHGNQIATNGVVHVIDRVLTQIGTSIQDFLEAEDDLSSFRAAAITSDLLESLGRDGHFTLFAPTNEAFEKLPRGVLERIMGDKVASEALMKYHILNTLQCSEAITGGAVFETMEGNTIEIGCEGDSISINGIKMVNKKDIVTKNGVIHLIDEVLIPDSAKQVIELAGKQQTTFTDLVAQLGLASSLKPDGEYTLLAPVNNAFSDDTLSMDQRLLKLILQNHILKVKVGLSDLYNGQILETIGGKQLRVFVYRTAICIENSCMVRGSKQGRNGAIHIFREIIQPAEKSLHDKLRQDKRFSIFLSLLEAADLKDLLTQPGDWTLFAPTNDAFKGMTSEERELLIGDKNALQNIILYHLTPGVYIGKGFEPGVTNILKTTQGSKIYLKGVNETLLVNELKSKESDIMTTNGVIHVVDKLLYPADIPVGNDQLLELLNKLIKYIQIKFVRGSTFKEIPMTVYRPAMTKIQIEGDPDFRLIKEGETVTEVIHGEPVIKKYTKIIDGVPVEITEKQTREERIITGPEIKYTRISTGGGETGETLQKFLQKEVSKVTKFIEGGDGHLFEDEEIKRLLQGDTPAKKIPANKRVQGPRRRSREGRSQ", "assay": "cell-based or functional assay"}, "[3]": {"molecular_target": "T3, NB1246 (V295A) (human, UniProt Q15063 22-631, limits assumed)", "T3 construct": "also called POSTN EMI-FAS4 V295A", "T3 sequence": "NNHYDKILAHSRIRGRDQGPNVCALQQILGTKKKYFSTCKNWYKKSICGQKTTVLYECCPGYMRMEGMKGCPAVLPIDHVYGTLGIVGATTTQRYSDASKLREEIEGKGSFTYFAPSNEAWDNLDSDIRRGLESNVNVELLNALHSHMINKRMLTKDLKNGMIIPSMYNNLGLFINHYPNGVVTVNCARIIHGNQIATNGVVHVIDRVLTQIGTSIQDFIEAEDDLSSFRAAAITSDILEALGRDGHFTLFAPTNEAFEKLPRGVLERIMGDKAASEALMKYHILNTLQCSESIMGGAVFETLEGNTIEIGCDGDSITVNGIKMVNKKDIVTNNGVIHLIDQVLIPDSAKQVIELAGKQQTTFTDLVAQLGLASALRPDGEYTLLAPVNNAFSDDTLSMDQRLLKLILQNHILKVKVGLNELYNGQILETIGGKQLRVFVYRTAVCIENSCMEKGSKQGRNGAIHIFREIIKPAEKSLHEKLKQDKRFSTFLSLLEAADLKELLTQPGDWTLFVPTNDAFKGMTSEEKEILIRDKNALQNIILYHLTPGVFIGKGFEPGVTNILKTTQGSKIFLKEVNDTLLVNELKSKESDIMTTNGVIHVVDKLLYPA", "assay": "ELISA on alanine variants of POSTN EMI-FAS4, second screen"}, "[4]": {"molecular_target": "T4, NB1202 (N276A) (human, UniProt Q15063 22-631, limits assumed)", "T4 construct": "also called POSTN EMI-FAS4 N276A", "T4 sequence": "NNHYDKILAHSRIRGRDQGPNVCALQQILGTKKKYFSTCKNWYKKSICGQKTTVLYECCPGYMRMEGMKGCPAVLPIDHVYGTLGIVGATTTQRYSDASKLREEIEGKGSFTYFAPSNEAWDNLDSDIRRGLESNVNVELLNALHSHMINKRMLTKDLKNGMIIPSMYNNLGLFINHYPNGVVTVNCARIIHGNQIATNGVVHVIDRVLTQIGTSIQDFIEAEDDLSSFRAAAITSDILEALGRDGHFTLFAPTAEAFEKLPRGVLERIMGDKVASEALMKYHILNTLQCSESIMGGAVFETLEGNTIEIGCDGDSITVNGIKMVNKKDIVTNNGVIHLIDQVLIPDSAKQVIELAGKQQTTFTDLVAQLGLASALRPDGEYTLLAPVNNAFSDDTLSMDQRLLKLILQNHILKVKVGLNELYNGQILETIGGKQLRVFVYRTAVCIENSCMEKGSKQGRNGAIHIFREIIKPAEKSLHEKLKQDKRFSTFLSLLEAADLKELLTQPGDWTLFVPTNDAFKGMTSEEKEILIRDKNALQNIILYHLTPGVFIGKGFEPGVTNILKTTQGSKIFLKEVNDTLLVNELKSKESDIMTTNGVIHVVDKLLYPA", "assay": "ELISA on alanine variants of POSTN EMI-FAS4, second screen"}},
  "data": [
    {"binder": "NB0828 (antibody, V domains shown) VH: QVQLVQSGAEVKKPGASVKVSCKASGYTFTSYGISWVRQAPGQGLEWMGWISAYNGNTNYAQKLQGRVTMTTDTSTSTAYMELRSLRSDDTAVYYCARDMLVVPFDYWGQGTLVTVSS VL: QSVLTQSSSASGTPGQTVTVSCSGSSSDIGSNRVNWYQQLPGTAPKLLIYSNDQRPSGVPDRFSGSKSGTSASLAISGLQSADEADYYCAAWDDSLSTYVFGSGTKVTVL", "values": [
      {"measurement": "CAA IC50", "setting": "[1]", "value": 24.3, "unit": "nM"},
      {"measurement": "CAA IC50", "setting": "[2]", "value": 26, "unit": "nM"},
      {"measurement": "loss from the max signal", "setting": "[3]", "value": "> 50", "unit": "%"},
      {"measurement": "loss from the max signal", "setting": "[4]", "value": "> 50", "unit": "%"}
    ]}
  ]
}
